How the values were obtained:
[1] = set-up: species or system Swiss-Webster mice; conditions: mouse, in vivo
Description: The PK of FGF21 antibody conjugates were examined in mice after IV or SC administration. […] Antibody conjugates concentrations in serum were determined using an ELISA which captured the FGF21 portion of the antibody conjugates through a monoclonal anti-hFGF21 antibody bound to a 96-well plate. FGF21 antibody conjugates bound to the plate were detected through an anti-hFc monoclonal antibody, and concentrations were determined using a standard curve of the PK dosing solution diluted into serum-containing assay buffer. SC bioavailability was calculated as the ratio of the area-under the curve (AUC) of the SC serum concentration profile divided by the AUC of the IV serum concentration profile.

ob/ob mice = test: Mouse efficacy in ob/ob mice (OGTT, body weight, liver, gene expression); format: in vivo
Description: (§1) The efficacy of FGF21 antibodies conjugates was evaluated in two murine obese insulin resistant models—ob/ob mice and high-fat diet-induced obese mice. For both models, male mice (6-8 weeks of age for ob/ob, 12-14 weeks of age for DIO with high-fat diet initiated at 6 weeks of age) were housed 2-4/cage and FGF21 antibody conjugates were administered by SC injection. Body weight was measured daily in the morning. Glucose tolerance was assessed by oral glucose tolerance test. Briefly, mice were fasted for 4-5 hrs in the morning of the day of testing. A basal blood sample was obtained and blood glucose levels were determined using a portable glucometer. Following basal sample, glucose was administered by oral gavage, and blood samples were drawn from 15 to 120 mins thereafter.
(§2) For […] expression, frozen visceral WAT samples collected from the in vivo efficacy studies were homogenized. Total RNA was extracted from the tissue homogenates, and Glut1 and GAPDH mRNA expression was measured using a Quantitect Probe RT-PCR kit and running a quantitative real time PCR reaction in a Taqman machine (Applied Biosystems). The effect of treatment was determined by a fold change in Glut1 mRNA levels normalized by the GAPDH mRNA levels from each sample.

[2] = test system: obese insulin resistant (pre-diabetic) cynomolgus macaques; format: in vivo, Macaca fascicularis; conditions: 0.3 mg/kg QD
Description: […] adult cynomolgus monkeys (Macaca fascicularis) were included in the study. The monkeys (13 male, 11 female) were stratified into four treatment groups of 6 individuals, based on sex, body weight, and basal glycemic and lipid indices measured in a baseline plasma sample collected 2 weeks prior to the start of dosing. Animals were maintained on a high fat diet. Animals were dosed for 4 weeks followed by a 4 week washout period.
Blood samples were collected weekly during the dosing and washout periods, with the exception that no samples were collected at week 3 of washout. After an overnight fast (16-18 h), monkeys were sedated with ketamine 10-15 mg/kg by intramuscular (IM) injection. Body weights were recorded and blood (5 mL) was collected via percutaneous femoral venipuncture into ethylenediaminetetraacetic acid (EDTA) treated Vacutainer tubes pretreated with ˜1.8 trypsin inhibitor units (TIU) Aprotinin (Sigma 0.6 TIU per mL whole blood). Tubes were immediately placed on ice. Plasma was prepared by centrifugation, with the resulting plasma aliquoted and frozen at −80° C.
Data were treated in the same way for each pharmacodynamic endpoint. The baseline value for each individual monkey was subtracted from each timepoint to give a value corresponding to change from baseline. Changes from baseline values were averaged for each timepoint in each treatment group and standard error of the mean (SEM) calculated. Results are reported as mean change from baseline±SEM for each treatment group over the timecourse of the study. […] As there was no vehicle control group for the FGF21ΔH treated animals, the raw data and not the change from baseline value was used to assess statistical significance. In this case a student's T-test (two sided, paired sample) was carried out vs. baseline. […]
Plasma fructosamine was measured via an enzymatic colorimetric method using the Ace Alera Clinical Chemistry Analyzer using a kit from Roche Diagnostics®(Mannheim, Germany) according to manufacturer's instructions. […] Significant reduction in plasma fructosamine levels over time indicates improved glycemic control. […]
TPC levels were measured using enzymatic methods on the Ace Alera analyzer. There was a significant decrease in TPC after 1 week of treatment in all treatment groups (FIG. 9H).
TG levels were measured using enzymatic methods on the Ace Alera analyzer.
Non-esterified free fatty acids (FFA) were measured using enzymatic methods on a Roche Cobas® C311 clinical chemistry analyzer using protocols and reagents from Wako® (Wako Diagnostics, Richmond, Va.) according to manufacturer's instructions.
HDL levels were measured using enzymatic methods on the Ace Alera analyzer. There was no significant change in HDL cholesterol over the treatment period in any of the treatment groups.
LDL levels were measured using enzymatic methods on the Ace Alera analyzer.
TOTK were measured using enzymatic methods on a Roche Cobas® C311 clinical chemistry analyzer using protocols and reagents from Wako®.
Adiponectin levels were determined using a Mercodia® ELISA kit.
C-reactive protein (CRP) was measured using an ELISA kit from ALPCO Diagnostics® (Salem, N.H.) according to manufacturer's instructions. […] Levels trended back to baseline during the washout phase.
Leptin was measured by Luminex® technology (Millipore® catalogue number HMH-34K) with protocols and reagents according to manufacturer's instructions.
Adipsin levels were measured using and R&D Systems® (Minneapolis Minn.) human complement factor D Quantikine kit (catalogue number DFD00) according to manufacturer's instructions. […] The levels trended back towards baseline during the washout phase.

DIO mice = test: Mouse efficacy in high-fat diet-induced obese (DIO) mice; format: in vivo; conditions: day 10, 1 mg/kg QD
Description: as §1, §2

[3] = test system: Differentiated 3T3-L1 adipocytes; test: Glucose uptake assay; format: cell-based; conditions: unconjugated protein; n in brackets
Description: Differentiated 3T3-L1 adipocytes were treated with compounds in the absence of serum for 24 hrs. Cells were then incubated with ^14C-2-deoxyglucose for 1 hr and glucose uptake into the cells was quantitated in Wallac 1450 MicroBeta (Trilux) instrument. Glucose uptake was expressed in counts per min (CPM). EC50 values as measurements of the potency of the compounds were obtained from the dose response curves in the assay.

[4] = ob/ob mice liver, day 6, qPCR, 1 mg/kg QD

B1: FGF21ΔH: FGF21 with H1 absent (ΔH1), L146, SEQ ID NO:2; control protein (protein, listed as Homo sapiens)
chain: PIPDSSPLLQFGGQVRQRYLYTDDAQQTEAHLEIREDGTVGGAADQSPESLLQLKALKPGVIQILGVKTSRFLCQRPDGALYGSLHFDPEACSFRELLLEDGYNVYQSEAHGLPLHLPGNKSPHRDPAPRGPARFLPLPGLPPAPLEPPGILAPQPPDVGSSDPLSMVGPSQGRSPSYAS
IV T1/2 ([1]; iv): 24 min | % SC BioAv ([1]; sc): 96% | SC T1/2 ([1]; sc): 30 min | GTT* (% AUC of Ctrl) (ob/ob mice; 1 mg/kg Qd (FGF21dH protein)): 67 % AUC of Ctrl | Mean fold changes of mRNA expression, FoxA2 (ob/ob mice; [4]): 1.23 fold | Mean fold changes of mRNA expression, MOGAT2 (ob/ob mice; [4]): 0.37 fold | Mean fold changes of mRNA expression, SCD1 (ob/ob mice; [4]): 0.95 fold | Mean Glucose AUC (% of vehicle control) (ob/ob mice; ob/ob mice, OGTT day 6, 1 mg/kg QD): 61 % of vehicle control | Body weight change from day −1 (ob/ob mice; ob/ob mice, day 6, 1 mg/kg QD): 4.7 | Glucose AUC during OGTT (ob/ob mice; ob/ob mice, day 6, 1 mg/kg QD): 67 | Liver Weight (ob/ob mice; ob/ob mice, day 6, 1 mg/kg QD): 1.8 g | Triglycerides content in liver (ob/ob mice; ob/ob mice, day 6, 1 mg/kg QD): 37.0 | UCP1 mRNA expression in WAT (ob/ob mice; ob/ob mice, day 6, 1 mg/kg QD): 2.6 | Mean Glucose AUC (% of vehicle control) during OGTT (ob/ob mice; ob/ob mice, single SC dose 0.6 mg/kg (FIG. 4A)): 103 % of vehicle control | Cumulative body weight change, mean body weight (ob/ob mice; ob/ob mice, single SC dose 0.6 mg/kg (FIG. 5A)): 3.2 g | mean liver weight (ob/ob mice; ob/ob mice, single SC dose 0.6 mg/kg (FIG. 5B)): 2.4 g | Cumulative body weight change, mean body weight (ob/ob mice; ob/ob mice, single SC dose 1 mg/kg (FIG. 5A)): 2.5 g | mean liver weight (ob/ob mice; ob/ob mice, single SC dose 1 mg/kg (FIG. 5B)): 2.2 g | Mean Glucose AUC (% of vehicle control) during OGTT (ob/ob mice; ob/ob mice, single SC dose 1 mg/kg (FIGS. 4A, 4B)): 74 % of vehicle control | Cumulative body weight change, mean body weight (ob/ob mice; ob/ob mice, single dose, dose not printed (FIG. 6A)): 1.9 g | mean glucose AUC % during OGTT (ob/ob mice; ob/ob mice, single dose, dose not printed (FIG. 6B)): 63% | LDL cholesterol [2]: significant decrease in LDL cholesterol levels was only observed after 1 week of treatment | non-esterified free fatty acids (FFA) [2]: significantly increased over the first 2 weeks of treatment | plasma adiponectin [2]: trended upwards | body weight ([2]; 4 weeks, vs baseline): significant decrease in body weight | plasma fructosamine ([2]; after 3 weeks): significantly reduced | triglycerides (TG) ([2]; dosing period): significant decrease in TG | total ketone bodies (TOTK) ([2]; first 3 weeks of treatment): significantly increased | plasma leptin ([2]; not significant): decreased | plasma C-reactive protein (CRP) ([2]; significance only at 1 week washout): decreased | Body weight change from day −1 (DIO mice): −1.6 | Glucose AUC during OGTT (DIO mice): 75 | Mean values of serum lipids NEFA (DIO mice): 0.40 mM | Mean values of serum lipids TG (DIO mice): 92 mg/dL | UCP1 mRNA expression in WAT (DIO mice): 1.38 | EC50 [3]: 12 nM

Reference: patent US8722622B2, “FGF21 conjugates and anti-diabetic uses thereof” (COVX Technologies Ireland, Limited, priority 2010, dated 2014)
